Two molecules from paper PMC4499121 can be followed below.

Series [1] concerns the target T1, Interleukin 10 receptor alpha chain, Fc fusion (human, UniProt Q13651 22-235).
T1 sequence: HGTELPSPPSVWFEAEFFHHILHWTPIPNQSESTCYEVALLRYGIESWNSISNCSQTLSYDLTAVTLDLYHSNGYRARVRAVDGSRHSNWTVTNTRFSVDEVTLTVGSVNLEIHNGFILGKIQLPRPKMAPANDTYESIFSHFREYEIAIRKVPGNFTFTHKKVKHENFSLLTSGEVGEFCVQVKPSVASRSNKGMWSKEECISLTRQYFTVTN
The series can be described thus: double filter binding; text: mutant with highest change in affinity; Fig 3D legend gives that to Mutant 2; Binding buffer (composition and pH not given), 37 C, 5' 32P RNA with a range of protein concentrations, nitrocellulose/nylon double filter; Kd = protein concent.

Series [2] has as its target T1, Interleukin 10 receptor alpha chain, Fc …. The series can be described thus: double filter binding; improved relative to cluster 1 seed; Binding buffer (composition and pH not given), 37 C, 5' 32P RNA with a range of protein concentrations, nitrocellulose/nylon double filter; Kd = protein concent.

B1: cluster 1 Mutant 1 (ssRNA)
RNA: GGGAGAGAGGAAGAGGGAUGGGUAACACUCGAUUCUCCUAGCCCUCUAGAAAUUCCCCUCCCCGACGACUCGCUGAGAUCGAGA
modifications: DuraScribe IVT transcript (2'-F pyrimidines implied by the kit, not stated)
B1: the Kd (as a rule, the concentration at which binding is half-saturated) in series [1] came out at 0.027 µM.

B2: cluster 1 Mutant 2 (ssRNA)
RNA: GGGAGAGAGGAAGAGGGAUGGGUAACACUCGAUUCUCCUAUCCCGCUAGAAAUUCCCCUCCCCGACGACUCGCUGAGAUCGAGA
modifications: DuraScribe IVT transcript (2'-F pyrimidines implied by the kit, not stated)
In the case of B2, in series [2], the binding result is on record as “binds”.
